Measurements: article PMC4655838 (2015)
Square brackets hold non-standard residues; d marks the D form. Ends that are not written are not given here. pT = C[C@@H](OP(=O)(O)O)[C@H](N)C(=O)O; pS = N[C@@H](COP(=O)(O)O)C(=O)O

T1: APLF FHA domain (residues 1-106) (UniProt Q8IW19 1-106)
T1 chain: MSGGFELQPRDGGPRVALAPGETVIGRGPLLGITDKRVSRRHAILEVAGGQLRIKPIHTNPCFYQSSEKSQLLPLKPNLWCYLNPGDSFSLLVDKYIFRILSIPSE


Legend:
Test in all cases: ITC
[1] = molecular target: aprataxin FHA domain (residues 1-105)
[2] = molecular target: T1, APLF FHA domain (residues 1-106)
[3] = molecular target: aprataxin FHA domain K38A (residues 1-105)
Chain of aprataxin FHA domain K38A (residues 1-105) (chain, as listed by the source K38A): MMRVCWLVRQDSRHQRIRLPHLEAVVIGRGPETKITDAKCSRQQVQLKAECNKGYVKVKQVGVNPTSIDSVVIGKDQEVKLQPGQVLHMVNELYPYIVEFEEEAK

Chain of aprataxin FHA domain (residues 1-105) (chain, as listed by the source): as the sequence (chain, as listed by the source K38A) above, with A38K counted along it

Binder | Kd [2] [µM] | Kd [1] [µM] | Kd [3] [µM]
YDESTDEES (HELM PEPTIDE1{Y.D.E.[O=C([C@H](COP(=O)(O)O)N[*:1])[*:2]].[C[C@@H](OP(=O)(O)O)[C@H](N[*:1])C(=O)[*:2]].D.E.E.S.[am]}$$$$V2.0; N-terminus assumed; SMILES C[C@@H](OP(=O)(O)O)[C@H](NC(=O)[C@H](COP(=O)(O)O)NC(=O)[C@H](CCC(=O)O)NC(=O)[C@H](CC(=O)O)NC(=O)[C@@H](N)Cc1ccc(O)cc1)C(=O)N[C@@H](CC(=O)O)C(=O)N[C@@H](CCC(=O)O)C(=O)N[C@@H](CCC(=O)O)C(=O)N[C@@H](CO)C(N)=O) [XRCC4 229-237 peptide phosphorylated on Ser232 and Thr233] | 0.47 | 0.25 | 1.9
YAGSTDENTDSEEHQ (HELM PEPTIDE1{Y.A.G.S.T.D.E.N.[C[C@@H](OP(=O)(O)O)[C@H](N[*:1])C(=O)[*:2]].D.S.E.E.H.Q.[am]}$$$$V2.0; N-terminus assumed; SMILES C[C@H](NC(=O)[C@@H](N)Cc1ccc(O)cc1)C(=O)NCC(=O)N[C@@H](CO)C(=O)N[C@H](C(=O)N[C@@H](CC(=O)O)C(=O)N[C@@H](CCC(=O)O)C(=O)N[C@@H](CC(N)=O)C(=O)N[C@H](C(=O)N[C@@H](CC(=O)O)C(=O)N[C@@H](CO)C(=O)N[C@@H](CCC(=O)O)C(=O)N[C@@H](CCC(=O)O)C(=O)N[C@@H](Cc1c[nH]cn1)C(=O)N[C@@H](CCC(N)=O)C(N)=O)[C@@H](C)OP(=O)(O)O)[C@@H](C)O) [XRCC1 515-529 peptide phosphorylated solely on Thr523] | 35 | 42 | 
YAGSTDENTDSEEHQ (HELM PEPTIDE1{Y.A.G.[O=C([C@H](COP(=O)(O)O)N[*:1])[*:2]].[C[C@@H](OP(=O)(O)O)[C@H](N[*:1])C(=O)[*:2]].D.E.N.T.D.S.E.E.H.Q.[am]}$$$$V2.0; N-terminus assumed; SMILES C[C@H](NC(=O)[C@@H](N)Cc1ccc(O)cc1)C(=O)NCC(=O)N[C@@H](COP(=O)(O)O)C(=O)N[C@H](C(=O)N[C@@H](CC(=O)O)C(=O)N[C@@H](CCC(=O)O)C(=O)N[C@@H](CC(N)=O)C(=O)N[C@H](C(=O)N[C@@H](CC(=O)O)C(=O)N[C@@H](CO)C(=O)N[C@@H](CCC(=O)O)C(=O)N[C@@H](CCC(=O)O)C(=O)N[C@@H](Cc1c[nH]cn1)C(=O)N[C@@H](CCC(N)=O)C(N)=O)[C@@H](C)O)[C@@H](C)OP(=O)(O)O) [XRCC1 515-529 peptide phosphorylated on Ser518 and Thr519] | 8.1 | 1.5 | 12.8
YDE[pS][pT]DEE[pS]-NH2 (N-terminus assumed; SMILES C[C@@H](OP(=O)(O)O)[C@H](NC(=O)[C@H](COP(=O)(O)O)NC(=O)[C@H](CCC(=O)O)NC(=O)[C@H](CC(=O)O)NC(=O)[C@@H](N)Cc1ccc(O)cc1)C(=O)N[C@@H](CC(=O)O)C(=O)N[C@@H](CCC(=O)O)C(=O)N[C@@H](CCC(=O)O)C(=O)N[C@@H](COP(=O)(O)O)C(N)=O) [XRCC4 229-237 peptide phosphorylated on Ser232, Thr233 and Ser237] | 0.42 | 0.14 | 1.3
YAG[pS][pT]DEN[pT]D[pS]EEHQ-NH2 (N-terminus assumed; SMILES C[C@H](NC(=O)[C@@H](N)Cc1ccc(O)cc1)C(=O)NCC(=O)N[C@@H](COP(=O)(O)O)C(=O)N[C@H](C(=O)N[C@@H](CC(=O)O)C(=O)N[C@@H](CCC(=O)O)C(=O)N[C@@H](CC(N)=O)C(=O)N[C@H](C(=O)N[C@@H](CC(=O)O)C(=O)N[C@@H](COP(=O)(O)O)C(=O)N[C@@H](CCC(=O)O)C(=O)N[C@@H](CCC(=O)O)C(=O)N[C@@H](Cc1c[nH]cn1)C(=O)N[C@@H](CCC(N)=O)C(N)=O)[C@@H](C)OP(=O)(O)O)[C@@H](C)OP(=O)(O)O) [XRCC1 515-529 peptide phosphorylated on Ser518, Thr519, Thr523 and Ser525] | 11 | 0.87 | 
YAGSTDENTDSEEHQ (HELM PEPTIDE1{Y.A.G.S.T.D.E.N.[C[C@@H](OP(=O)(O)O)[C@H](N[*:1])C(=O)[*:2]].D.[O=C([C@H](COP(=O)(O)O)N[*:1])[*:2]].E.E.H.Q.[am]}$$$$V2.0; N-terminus assumed; SMILES C[C@H](NC(=O)[C@@H](N)Cc1ccc(O)cc1)C(=O)NCC(=O)N[C@@H](CO)C(=O)N[C@H](C(=O)N[C@@H](CC(=O)O)C(=O)N[C@@H](CCC(=O)O)C(=O)N[C@@H](CC(N)=O)C(=O)N[C@H](C(=O)N[C@@H](CC(=O)O)C(=O)N[C@@H](COP(=O)(O)O)C(=O)N[C@@H](CCC(=O)O)C(=O)N[C@@H](CCC(=O)O)C(=O)N[C@@H](Cc1c[nH]cn1)C(=O)N[C@@H](CCC(N)=O)C(N)=O)[C@@H](C)OP(=O)(O)O)[C@@H](C)O) [YAGSTDENpTDpSEEHQ] | 17 | 33 | 

More lines, in order of falling Kd [2], values ahead:

Kd [2] [µM] | Binder | Kd [1] [µM] | Kd [3] [µM]
30 | YAGSTDENTDSEEHQ (HELM PEPTIDE1{Y.A.G.S.[C[C@@H](OP(=O)(O)O)[C@H](N[*:1])C(=O)[*:2]].D.E.N.T.D.S.E.E.H.Q.[am]}$$$$V2.0; N-terminus assumed; SMILES C[C@H](NC(=O)[C@@H](N)Cc1ccc(O)cc1)C(=O)NCC(=O)N[C@@H](CO)C(=O)N[C@H](C(=O)N[C@@H](CC(=O)O)C(=O)N[C@@H](CCC(=O)O)C(=O)N[C@@H](CC(N)=O)C(=O)N[C@H](C(=O)N[C@@H](CC(=O)O)C(=O)N[C@@H](CO)C(=O)N[C@@H](CCC(=O)O)C(=O)N[C@@H](CCC(=O)O)C(=O)N[C@@H](Cc1c[nH]cn1)C(=O)N[C@@H](CCC(N)=O)C(N)=O)[C@@H](C)O)[C@@H](C)OP(=O)(O)O) [XRCC1 515-529 peptide phosphorylated on Thr519] | 17 | 46.3
11 | YAG[pS][pT]DEN[pT]DSEEHQ-NH2 (N-terminus assumed; SMILES C[C@H](NC(=O)[C@@H](N)Cc1ccc(O)cc1)C(=O)NCC(=O)N[C@@H](COP(=O)(O)O)C(=O)N[C@H](C(=O)N[C@@H](CC(=O)O)C(=O)N[C@@H](CCC(=O)O)C(=O)N[C@@H](CC(N)=O)C(=O)N[C@H](C(=O)N[C@@H](CC(=O)O)C(=O)N[C@@H](CO)C(=O)N[C@@H](CCC(=O)O)C(=O)N[C@@H](CCC(=O)O)C(=O)N[C@@H](Cc1c[nH]cn1)C(=O)N[C@@H](CCC(N)=O)C(N)=O)[C@@H](C)OP(=O)(O)O)[C@@H](C)OP(=O)(O)O) [XRCC1 515-529 peptide phosphorylated on Ser518, Thr519 and Thr523] | 0.5 | 3.8
3.6 | YDESTDEES (HELM PEPTIDE1{Y.D.E.S.[C[C@@H](OP(=O)(O)O)[C@H](N[*:1])C(=O)[*:2]].D.E.E.S.[am]}$$$$V2.0; N-terminus assumed; SMILES C[C@@H](OP(=O)(O)O)[C@H](NC(=O)[C@H](CO)NC(=O)[C@H](CCC(=O)O)NC(=O)[C@H](CC(=O)O)NC(=O)[C@@H](N)Cc1ccc(O)cc1)C(=O)N[C@@H](CC(=O)O)C(=O)N[C@@H](CCC(=O)O)C(=O)N[C@@H](CCC(=O)O)C(=O)N[C@@H](CO)C(N)=O) [XRCC4 229-237 peptide phosphorylated on Thr233] | 2.1 | 6.8
